{
  "source": "patent US20240209062A1",
  "about": "(INVETX, published 2024)",
  "binders": {"B1": {"name": "IgG with feline IgG1a Fc variant S428M, L309E (antibody)", "heavy": "DVQLVESGGDLVKPGGSLRLTCVASGLSLTSDSMSWVRQAPGKGLQWVSTLWSNRGTYYTDSVKGRFTISKDNAENTLYLQMNNLKTEDTATYYCASIYYYEADYLHWYFDFWGQGALVTVSSASTTAPSVFPLAPSCGTTSGATVALACLVLGYFPEPVTVSWNSGALTSGVHTFPAVLQASGLYSLSSMVTVPSSRWLSDTFTCNVAHPPSNTKVDKTVRKTDHPPGPKPCDCPKCPPPEAAGGPSIFIFPPKPKDTLSISRTPEVTCLVVDLGPDDSDVQITWFVDNTQVYTAKTSPREEQFNSTYRVVSVLPIEHQDWLKGKEFKCKVNSKSLPSPIERTISKAKGQPHEPQVYVLPPAQEELSRNKVSVTCLIKSFHPPDIAVEWEITGQPEPENNYRTTPPQLDSDGTYFVYSKLSVDRSHWQRGNTYTCSVMHEALHSHHTQKSLTQSPG", "light": "EIQMTQSPTSLSASVGDRVTITCRASEGIANNLSWYQQTPGKAPKLLIYATSNLHSGVPSRFSGSGSGTDFTLTISSLQPEDFATYYCQQGFKWPLTFGGGTKLEITRSDAQPSVFLFQPSLDELHTGSASIVCILNDFYPKEVNVKWKVDGVVQNKGIQESTTEQNSKDSTYSLSSTLTMSSTEYQSHEKFSCEVTHKSLASTLVKSFNRSECQRE", "notes": "IgG1a constant domain with MALA mutations (M234A, L244A as printed); variable domains from WO 2023/97275"}, "B2": {"name": "IgG with feline IgG1a Fc variant S428M, L309V (antibody)", "heavy": "DVQLVESGGDLVKPGGSLRLTCVASGLSLTSDSMSWVRQAPGKGLQWVSTLWSNRGTYYTDSVKGRFTISKDNAENTLYLQMNNLKTEDTATYYCASIYYYEADYLHWYFDFWGQGALVTVSSASTTAPSVFPLAPSCGTTSGATVALACLVLGYFPEPVTVSWNSGALTSGVHTFPAVLQASGLYSLSSMVTVPSSRWLSDTFTCNVAHPPSNTKVDKTVRKTDHPPGPKPCDCPKCPPPEAAGGPSIFIFPPKPKDTLSISRTPEVTCLVVDLGPDDSDVQITWFVDNTQVYTAKTSPREEQFNSTYRVVSVLPIVHQDWLKGKEFKCKVNSKSLPSPIERTISKAKGQPHEPQVYVLPPAQEELSRNKVSVTCLIKSFHPPDIAVEWEITGQPEPENNYRTTPPQLDSDGTYFVYSKLSVDRSHWQRGNTYTCSVMHEALHSHHTQKSLTQSPG", "light": "EIQMTQSPTSLSASVGDRVTITCRASEGIANNLSWYQQTPGKAPKLLIYATSNLHSGVPSRFSGSGSGTDFTLTISSLQPEDFATYYCQQGFKWPLTFGGGTKLEITRSDAQPSVFLFQPSLDELHTGSASIVCILNDFYPKEVNVKWKVDGVVQNKGIQESTTEQNSKDSTYSLSSTLTMSSTEYQSHEKFSCEVTHKSLASTLVKSFNRSECQRE", "notes": "as for B1"}, "B3": {"name": "IgG with feline IgG1a Fc variant S428M, Q311V (antibody)", "heavy": "DVQLVESGGDLVKPGGSLRLTCVASGLSLTSDSMSWVRQAPGKGLQWVSTLWSNRGTYYTDSVKGRFTISKDNAENTLYLQMNNLKTEDTATYYCASIYYYEADYLHWYFDFWGQGALVTVSSASTTAPSVFPLAPSCGTTSGATVALACLVLGYFPEPVTVSWNSGALTSGVHTFPAVLQASGLYSLSSMVTVPSSRWLSDTFTCNVAHPPSNTKVDKTVRKTDHPPGPKPCDCPKCPPPEAAGGPSIFIFPPKPKDTLSISRTPEVTCLVVDLGPDDSDVQITWFVDNTQVYTAKTSPREEQFNSTYRVVSVLPILHVDWLKGKEFKCKVNSKSLPSPIERTISKAKGQPHEPQVYVLPPAQEELSRNKVSVTCLIKSFHPPDIAVEWEITGQPEPENNYRTTPPQLDSDGTYFVYSKLSVDRSHWQRGNTYTCSVMHEALHSHHTQKSLTQSPG", "light": "EIQMTQSPTSLSASVGDRVTITCRASEGIANNLSWYQQTPGKAPKLLIYATSNLHSGVPSRFSGSGSGTDFTLTISSLQPEDFATYYCQQGFKWPLTFGGGTKLEITRSDAQPSVFLFQPSLDELHTGSASIVCILNDFYPKEVNVKWKVDGVVQNKGIQESTTEQNSKDSTYSLSSTLTMSSTEYQSHEKFSCEVTHKSLASTLVKSFNRSECQRE", "notes": "as for B1"}, "B4": {"name": "IgG with feline IgG1a Fc variant S428M, R301L (antibody)", "heavy": "DVQLVESGGDLVKPGGSLRLTCVASGLSLTSDSMSWVRQAPGKGLQWVSTLWSNRGTYYTDSVKGRFTISKDNAENTLYLQMNNLKTEDTATYYCASIYYYEADYLHWYFDFWGQGALVTVSSASTTAPSVFPLAPSCGTTSGATVALACLVLGYFPEPVTVSWNSGALTSGVHTFPAVLQASGLYSLSSMVTVPSSRWLSDTFTCNVAHPPSNTKVDKTVRKTDHPPGPKPCDCPKCPPPEAAGGPSIFIFPPKPKDTLSISRTPEVTCLVVDLGPDDSDVQITWFVDNTQVYTAKTSPREEQFNSTYLVVSVLPILHQDWLKGKEFKCKVNSKSLPSPIERTISKAKGQPHEPQVYVLPPAQEELSRNKVSVTCLIKSFHPPDIAVEWEITGQPEPENNYRTTPPQLDSDGTYFVYSKLSVDRSHWQRGNTYTCSVMHEALHSHHTQKSLTQSPG", "light": "EIQMTQSPTSLSASVGDRVTITCRASEGIANNLSWYQQTPGKAPKLLIYATSNLHSGVPSRFSGSGSGTDFTLTISSLQPEDFATYYCQQGFKWPLTFGGGTKLEITRSDAQPSVFLFQPSLDELHTGSASIVCILNDFYPKEVNVKWKVDGVVQNKGIQESTTEQNSKDSTYSLSSTLTMSSTEYQSHEKFSCEVTHKSLASTLVKSFNRSECQRE", "notes": "as for B1"}, "B5": {"name": "IgG with feline IgG1a Fc variant S428M, R301V (antibody)", "heavy": "DVQLVESGGDLVKPGGSLRLTCVASGLSLTSDSMSWVRQAPGKGLQWVSTLWSNRGTYYTDSVKGRFTISKDNAENTLYLQMNNLKTEDTATYYCASIYYYEADYLHWYFDFWGQGALVTVSSASTTAPSVFPLAPSCGTTSGATVALACLVLGYFPEPVTVSWNSGALTSGVHTFPAVLQASGLYSLSSMVTVPSSRWLSDTFTCNVAHPPSNTKVDKTVRKTDHPPGPKPCDCPKCPPPEAAGGPSIFIFPPKPKDTLSISRTPEVTCLVVDLGPDDSDVQITWFVDNTQVYTAKTSPREEQFNSTYVVVSVLPILHQDWLKGKEFKCKVNSKSLPSPIERTISKAKGQPHEPQVYVLPPAQEELSRNKVSVTCLIKSFHPPDIAVEWEITGQPEPENNYRTTPPQLDSDGTYFVYSKLSVDRSHWQRGNTYTCSVMHEALHSHHTQKSLTQSPG", "light": "EIQMTQSPTSLSASVGDRVTITCRASEGIANNLSWYQQTPGKAPKLLIYATSNLHSGVPSRFSGSGSGTDFTLTISSLQPEDFATYYCQQGFKWPLTFGGGTKLEITRSDAQPSVFLFQPSLDELHTGSASIVCILNDFYPKEVNVKWKVDGVVQNKGIQESTTEQNSKDSTYSLSSTLTMSSTEYQSHEKFSCEVTHKSLASTLVKSFNRSECQRE", "notes": "as for B1"}, "B6": {"name": "IgG with feline IgG1a Fc variant S428M, R301Y (antibody)", "heavy": "DVQLVESGGDLVKPGGSLRLTCVASGLSLTSDSMSWVRQAPGKGLQWVSTLWSNRGTYYTDSVKGRFTISKDNAENTLYLQMNNLKTEDTATYYCASIYYYEADYLHWYFDFWGQGALVTVSSASTTAPSVFPLAPSCGTTSGATVALACLVLGYFPEPVTVSWNSGALTSGVHTFPAVLQASGLYSLSSMVTVPSSRWLSDTFTCNVAHPPSNTKVDKTVRKTDHPPGPKPCDCPKCPPPEAAGGPSIFIFPPKPKDTLSISRTPEVTCLVVDLGPDDSDVQITWFVDNTQVYTAKTSPREEQFNSTYYVVSVLPILHQDWLKGKEFKCKVNSKSLPSPIERTISKAKGQPHEPQVYVLPPAQEELSRNKVSVTCLIKSFHPPDIAVEWEITGQPEPENNYRTTPPQLDSDGTYFVYSKLSVDRSHWQRGNTYTCSVMHEALHSHHTQKSLTQSPG", "light": "EIQMTQSPTSLSASVGDRVTITCRASEGIANNLSWYQQTPGKAPKLLIYATSNLHSGVPSRFSGSGSGTDFTLTISSLQPEDFATYYCQQGFKWPLTFGGGTKLEITRSDAQPSVFLFQPSLDELHTGSASIVCILNDFYPKEVNVKWKVDGVVQNKGIQESTTEQNSKDSTYSLSSTLTMSSTEYQSHEKFSCEVTHKSLASTLVKSFNRSECQRE", "notes": "as for B1"}, "B7": {"name": "IgG with feline IgG1a Fc variant S428M, R392D (antibody)", "heavy": "DVQLVESGGDLVKPGGSLRLTCVASGLSLTSDSMSWVRQAPGKGLQWVSTLWSNRGTYYTDSVKGRFTISKDNAENTLYLQMNNLKTEDTATYYCASIYYYEADYLHWYFDFWGQGALVTVSSASTTAPSVFPLAPSCGTTSGATVALACLVLGYFPEPVTVSWNSGALTSGVHTFPAVLQASGLYSLSSMVTVPSSRWLSDTFTCNVAHPPSNTKVDKTVRKTDHPPGPKPCDCPKCPPPEAAGGPSIFIFPPKPKDTLSISRTPEVTCLVVDLGPDDSDVQITWFVDNTQVYTAKTSPREEQFNSTYRVVSVLPILHQDWLKGKEFKCKVNSKSLPSPIERTISKAKGQPHEPQVYVLPPAQEELSRNKVSVTCLIKSFHPPDIAVEWEITGQPEPENNYDTTPPQLDSDGTYFVYSKLSVDRSHWQRGNTYTCSVMHEALHSHHTQKSLTQSPG", "light": "EIQMTQSPTSLSASVGDRVTITCRASEGIANNLSWYQQTPGKAPKLLIYATSNLHSGVPSRFSGSGSGTDFTLTISSLQPEDFATYYCQQGFKWPLTFGGGTKLEITRSDAQPSVFLFQPSLDELHTGSASIVCILNDFYPKEVNVKWKVDGVVQNKGIQESTTEQNSKDSTYSLSSTLTMSSTEYQSHEKFSCEVTHKSLASTLVKSFNRSECQRE", "notes": "as for B1"}, "B8": {"name": "IgG with feline IgG1a Fc variant S428M, R392E (antibody)", "heavy": "DVQLVESGGDLVKPGGSLRLTCVASGLSLTSDSMSWVRQAPGKGLQWVSTLWSNRGTYYTDSVKGRFTISKDNAENTLYLQMNNLKTEDTATYYCASIYYYEADYLHWYFDFWGQGALVTVSSASTTAPSVFPLAPSCGTTSGATVALACLVLGYFPEPVTVSWNSGALTSGVHTFPAVLQASGLYSLSSMVTVPSSRWLSDTFTCNVAHPPSNTKVDKTVRKTDHPPGPKPCDCPKCPPPEAAGGPSIFIFPPKPKDTLSISRTPEVTCLVVDLGPDDSDVQITWFVDNTQVYTAKTSPREEQFNSTYRVVSVLPILHQDWLKGKEFKCKVNSKSLPSPIERTISKAKGQPHEPQVYVLPPAQEELSRNKVSVTCLIKSFHPPDIAVEWEITGQPEPENNYETTPPQLDSDGTYFVYSKLSVDRSHWQRGNTYTCSVMHEALHSHHTQKSLTQSPG", "light": "EIQMTQSPTSLSASVGDRVTITCRASEGIANNLSWYQQTPGKAPKLLIYATSNLHSGVPSRFSGSGSGTDFTLTISSLQPEDFATYYCQQGFKWPLTFGGGTKLEITRSDAQPSVFLFQPSLDELHTGSASIVCILNDFYPKEVNVKWKVDGVVQNKGIQESTTEQNSKDSTYSLSSTLTMSSTEYQSHEKFSCEVTHKSLASTLVKSFNRSECQRE", "notes": "as for B1"}},
  "data": [
    {"target": "T1, feline FcRn (soluble portion of large subunit p51 isoform X1 with C-terminal 6xHis-tag, co-expressed with … (feline, UniProt Q5MGS7 21-118))", "T1 construct": "Heterodimer made by co-expression in CHO cells, purified on HisTrap FF; also called FcRn complex", "T1 sequence (chain, as listed by the source limits assumed, chain 1 of 2)": "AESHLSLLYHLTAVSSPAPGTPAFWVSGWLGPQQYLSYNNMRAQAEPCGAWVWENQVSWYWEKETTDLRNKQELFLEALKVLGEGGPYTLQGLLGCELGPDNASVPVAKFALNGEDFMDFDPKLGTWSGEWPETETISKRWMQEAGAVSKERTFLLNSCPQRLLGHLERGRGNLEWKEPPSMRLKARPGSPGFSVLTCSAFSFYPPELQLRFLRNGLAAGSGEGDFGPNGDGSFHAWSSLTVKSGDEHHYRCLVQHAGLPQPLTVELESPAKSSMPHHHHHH", "T1 sequence (Q5MGS7 other isoform, or with tags, fused parts or gaps limits assumed, chain 2 of 2)": "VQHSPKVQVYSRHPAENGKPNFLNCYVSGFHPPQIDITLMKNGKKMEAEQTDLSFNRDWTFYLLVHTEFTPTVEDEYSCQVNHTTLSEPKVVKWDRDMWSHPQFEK", "test": "SPR, Biacore T200, IgG captured on Protein L chip, feline FcRn flowed over, pH 5.9, 1:1 fit", "experimental": "The feline FcRn binding experiments at pH 5.9 were completed on a BIACORE™ T200 instrument. A Series S Protein L Sensor chip (Cytiva, Cat. No. BR29205137) was used to capture the antibody variants via the kappa (κ) light chain. The feline variants were captured onto the protein L chip at a flow rate of 10 μL/min for 60 seconds. 1×PBX-P+(Cytiva Cat 28995084) was adjusted to pH 5.9 for the running buffer. The feline FcRn was flowed over the sensor chip at 30 μL/min for 120 seconds contact time and 600 seconds dissociation time. Regeneration of the flow cells was completed by flowing over 10 mM glycine, pH 1.7 at 30 μL/min for 30 seconds. The data were evaluated by the BIACORE™T200 Evaluation software v3.2.1 by fitting to a 1:1 kinetic interaction model.", "units": {"Kd": "nM", "koff": "s⁻¹", "kon": "M⁻¹ s⁻¹"}, "values": [
      {"binder": "B1", "Kd": 45.6, "koff": 0.0413, "kon": 905000},
      {"binder": "B2", "Kd": 31.3, "koff": 0.0358, "kon": "1.15e+06"},
      {"binder": "B3", "Kd": 28.4, "koff": 0.0319, "kon": "1.12e+06"},
      {"binder": "B4", "Kd": 103, "koff": 0.0835, "kon": 809000},
      {"binder": "B5", "Kd": 98.5, "koff": 0.0801, "kon": 812000},
      {"binder": "B6", "Kd": 98.7, "koff": 0.082, "kon": 830000},
      {"binder": "B7", "Kd": 101, "koff": 0.0795, "kon": 789000},
      {"binder": "B8", "Kd": 97.8, "koff": 0.0766, "kon": 784000}
    ]}
  ]
}
